What all share (conditions): both partners purified
The target in one assay is T1, MltA (P. aeruginosa PAO1, UniProt Q9I4B6 1-385).
T1 sequence (looked up): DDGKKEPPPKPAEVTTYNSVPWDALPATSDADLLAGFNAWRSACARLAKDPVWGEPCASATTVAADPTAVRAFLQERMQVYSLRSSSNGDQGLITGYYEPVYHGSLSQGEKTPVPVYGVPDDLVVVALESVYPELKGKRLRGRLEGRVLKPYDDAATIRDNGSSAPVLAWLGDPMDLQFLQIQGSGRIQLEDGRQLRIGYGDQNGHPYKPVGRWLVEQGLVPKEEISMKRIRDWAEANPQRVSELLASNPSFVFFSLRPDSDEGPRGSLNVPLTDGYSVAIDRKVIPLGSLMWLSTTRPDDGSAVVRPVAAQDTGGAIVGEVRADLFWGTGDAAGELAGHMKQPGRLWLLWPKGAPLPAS
The assay can be described thus: MST.

Assay [1] deals with T2, PBP1a (P. aeruginosa PAO1, UniProt Q07806 27-822). The assay is described as follows: MST.
Assay [2] has as its target T3, MltB (P. aeruginosa PAO1, UniProt Q9HVX3 1-367).
T3 sequence (looked up): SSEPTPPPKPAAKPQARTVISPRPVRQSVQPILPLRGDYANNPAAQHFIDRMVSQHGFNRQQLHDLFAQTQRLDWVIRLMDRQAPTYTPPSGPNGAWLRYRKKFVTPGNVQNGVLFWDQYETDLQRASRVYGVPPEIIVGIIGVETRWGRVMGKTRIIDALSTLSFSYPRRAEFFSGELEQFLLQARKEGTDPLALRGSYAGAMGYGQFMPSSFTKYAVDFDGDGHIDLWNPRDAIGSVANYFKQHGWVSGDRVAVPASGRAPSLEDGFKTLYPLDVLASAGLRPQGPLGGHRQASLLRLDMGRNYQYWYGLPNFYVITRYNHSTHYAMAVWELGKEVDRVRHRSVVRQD
The assay is described as follows: MST.

The target of assay [3] is T4, MltF (P. aeruginosa PAO1, UniProt Q9HXN1 33-490). The assay can be described thus: MST.
For assay [4], the target named is T5, SltB2 (P. aeruginosa PAO1, UniProt Q9I4G6 1-398).
T5 sequence (looked up): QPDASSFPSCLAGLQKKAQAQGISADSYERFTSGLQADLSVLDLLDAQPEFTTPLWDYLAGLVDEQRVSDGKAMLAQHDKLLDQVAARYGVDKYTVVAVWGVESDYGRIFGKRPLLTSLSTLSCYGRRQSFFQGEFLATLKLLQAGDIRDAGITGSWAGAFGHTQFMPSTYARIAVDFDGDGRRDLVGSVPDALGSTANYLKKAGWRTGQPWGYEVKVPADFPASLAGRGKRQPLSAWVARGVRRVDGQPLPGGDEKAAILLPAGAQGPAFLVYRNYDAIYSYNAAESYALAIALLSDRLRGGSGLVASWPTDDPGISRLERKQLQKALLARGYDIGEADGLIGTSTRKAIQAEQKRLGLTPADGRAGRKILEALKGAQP
The assay can be described thus: MST.

Assay [5] deals with T6, MltD (P. aeruginosa PAO1, UniProt Q9I2T2 1-534).
T6 sequence (looked up): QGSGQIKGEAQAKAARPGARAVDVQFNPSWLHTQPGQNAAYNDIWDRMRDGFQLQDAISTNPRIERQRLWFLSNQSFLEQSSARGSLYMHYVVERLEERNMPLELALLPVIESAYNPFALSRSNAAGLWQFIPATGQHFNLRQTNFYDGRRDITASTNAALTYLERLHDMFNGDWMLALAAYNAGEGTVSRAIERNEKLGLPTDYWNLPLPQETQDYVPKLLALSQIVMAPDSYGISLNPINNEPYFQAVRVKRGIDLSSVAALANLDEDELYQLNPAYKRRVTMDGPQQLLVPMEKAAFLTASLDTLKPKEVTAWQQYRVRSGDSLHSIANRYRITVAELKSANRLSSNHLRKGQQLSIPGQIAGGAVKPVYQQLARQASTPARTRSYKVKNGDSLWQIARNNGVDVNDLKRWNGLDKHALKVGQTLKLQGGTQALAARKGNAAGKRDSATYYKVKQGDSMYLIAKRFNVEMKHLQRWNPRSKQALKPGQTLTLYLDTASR
The assay can be described thus: MST.

The target in assay [6] is T7, PBP4 (P. aeruginosa PAO1, UniProt Q9HZG1 1-476).
T7 sequence (looked up): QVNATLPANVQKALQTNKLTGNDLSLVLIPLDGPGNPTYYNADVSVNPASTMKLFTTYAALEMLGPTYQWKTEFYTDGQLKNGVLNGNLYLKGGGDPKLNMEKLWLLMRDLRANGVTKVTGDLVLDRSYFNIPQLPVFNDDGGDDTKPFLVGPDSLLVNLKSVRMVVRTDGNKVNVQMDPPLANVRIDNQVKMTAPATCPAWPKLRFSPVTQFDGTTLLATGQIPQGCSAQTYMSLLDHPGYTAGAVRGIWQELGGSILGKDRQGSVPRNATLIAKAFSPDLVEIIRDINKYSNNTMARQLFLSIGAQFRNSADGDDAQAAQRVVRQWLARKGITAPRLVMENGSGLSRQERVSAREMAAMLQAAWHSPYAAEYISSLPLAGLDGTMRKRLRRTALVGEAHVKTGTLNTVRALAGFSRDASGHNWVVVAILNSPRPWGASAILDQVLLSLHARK
The assay is described as follows: MST.

The target of assay [7] is T8, TypA (P. aeruginosa PAO1, UniProt Q9HU67 1-605).
T8 sequence (looked up): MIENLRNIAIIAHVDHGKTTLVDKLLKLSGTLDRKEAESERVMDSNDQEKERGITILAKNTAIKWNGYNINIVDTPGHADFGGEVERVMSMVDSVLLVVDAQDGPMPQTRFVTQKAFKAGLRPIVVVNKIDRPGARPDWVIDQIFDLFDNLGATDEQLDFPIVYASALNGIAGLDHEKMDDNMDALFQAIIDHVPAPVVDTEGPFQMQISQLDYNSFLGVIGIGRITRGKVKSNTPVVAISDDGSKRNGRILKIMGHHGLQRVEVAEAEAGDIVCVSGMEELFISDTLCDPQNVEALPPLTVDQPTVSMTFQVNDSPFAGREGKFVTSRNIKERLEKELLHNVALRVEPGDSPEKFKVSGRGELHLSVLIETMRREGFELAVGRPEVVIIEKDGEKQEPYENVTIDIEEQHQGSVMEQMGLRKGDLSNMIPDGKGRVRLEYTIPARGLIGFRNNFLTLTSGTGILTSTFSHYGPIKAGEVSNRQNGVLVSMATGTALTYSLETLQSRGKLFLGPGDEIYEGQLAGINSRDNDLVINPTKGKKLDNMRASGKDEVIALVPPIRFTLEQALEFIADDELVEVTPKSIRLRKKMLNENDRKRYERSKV
The assay is described as follows: MST.

The target of assay [8] is T9, MltF2 (P. aeruginosa PAO1, UniProt Q9HZY1 1-476).
T9 sequence (looked up): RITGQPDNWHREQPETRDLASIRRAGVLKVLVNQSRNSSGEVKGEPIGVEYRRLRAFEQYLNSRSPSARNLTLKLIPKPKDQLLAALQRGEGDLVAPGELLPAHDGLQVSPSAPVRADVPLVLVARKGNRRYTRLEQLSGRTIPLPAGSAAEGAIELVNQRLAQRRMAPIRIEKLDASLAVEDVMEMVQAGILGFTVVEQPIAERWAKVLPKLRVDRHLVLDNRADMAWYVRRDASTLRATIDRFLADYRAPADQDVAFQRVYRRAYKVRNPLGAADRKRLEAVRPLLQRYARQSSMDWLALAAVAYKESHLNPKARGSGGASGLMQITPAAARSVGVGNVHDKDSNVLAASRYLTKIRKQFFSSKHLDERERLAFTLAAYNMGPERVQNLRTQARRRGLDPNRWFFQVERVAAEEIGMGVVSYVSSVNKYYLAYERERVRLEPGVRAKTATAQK
The assay is described as follows: MST.

For assay [9], the target named is T2, PBP1a. The assay is described as follows: SPR. (In SPR one partner is held on a chip, and binding of the other changes the refractive index at the surface.)
For assay [10], the target named is T3, MltB. The assay is described as follows: SPR.
The target in assay [11] is T4, MltF. The assay is described as follows: SPR.
The target of assay [12] is T5, SltB2. The assay is described as follows: SPR.
The target in assay [13] is T6, MltD. The assay is described as follows: SPR.
The target in assay [14] is T7, PBP4. The assay is described as follows: SPR.
Assay [15] deals with T8, TypA. The assay is described as follows: SPR.
The target in assay [16] is T9, MltF2. The assay can be described thus: SPR.

T2 sequence (Q07806 27-822): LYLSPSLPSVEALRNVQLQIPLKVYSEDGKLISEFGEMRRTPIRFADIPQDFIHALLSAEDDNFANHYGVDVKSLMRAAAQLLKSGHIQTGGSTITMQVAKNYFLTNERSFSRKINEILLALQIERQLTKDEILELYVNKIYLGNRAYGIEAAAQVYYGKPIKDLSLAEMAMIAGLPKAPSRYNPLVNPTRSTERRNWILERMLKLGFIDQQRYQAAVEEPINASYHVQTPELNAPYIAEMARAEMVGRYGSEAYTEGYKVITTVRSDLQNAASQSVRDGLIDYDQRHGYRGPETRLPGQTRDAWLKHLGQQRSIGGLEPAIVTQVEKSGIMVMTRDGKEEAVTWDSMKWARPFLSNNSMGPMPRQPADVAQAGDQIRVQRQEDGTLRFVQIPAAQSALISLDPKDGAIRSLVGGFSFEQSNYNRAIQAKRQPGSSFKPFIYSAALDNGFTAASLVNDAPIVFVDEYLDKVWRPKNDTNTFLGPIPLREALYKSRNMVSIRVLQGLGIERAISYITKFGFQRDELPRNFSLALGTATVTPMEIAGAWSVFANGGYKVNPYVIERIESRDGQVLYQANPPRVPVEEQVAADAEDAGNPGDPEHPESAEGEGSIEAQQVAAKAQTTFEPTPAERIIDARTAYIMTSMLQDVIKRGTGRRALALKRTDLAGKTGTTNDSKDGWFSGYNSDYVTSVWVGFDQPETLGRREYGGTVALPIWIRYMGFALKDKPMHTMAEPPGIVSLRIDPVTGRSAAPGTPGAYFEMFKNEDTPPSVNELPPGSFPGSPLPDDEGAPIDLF
T4 sequence (Q9HXN1 33-490): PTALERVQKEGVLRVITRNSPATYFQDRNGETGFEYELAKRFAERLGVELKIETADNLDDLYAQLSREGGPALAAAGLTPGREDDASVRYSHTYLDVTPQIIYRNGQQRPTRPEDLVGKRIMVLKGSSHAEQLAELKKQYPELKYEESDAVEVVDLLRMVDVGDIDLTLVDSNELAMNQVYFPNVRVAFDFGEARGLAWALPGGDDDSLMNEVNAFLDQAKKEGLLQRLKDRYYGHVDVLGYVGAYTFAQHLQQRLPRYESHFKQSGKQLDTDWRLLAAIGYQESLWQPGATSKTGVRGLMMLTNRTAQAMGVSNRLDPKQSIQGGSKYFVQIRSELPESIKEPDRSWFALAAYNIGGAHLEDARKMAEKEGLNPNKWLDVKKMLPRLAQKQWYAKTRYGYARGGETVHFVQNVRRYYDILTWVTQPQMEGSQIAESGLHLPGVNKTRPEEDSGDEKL

B1: RlpA-Δ32, fluorescently labeled (domain or fragment)
chain: PQQPARQAGISGPGDYSRPHRDGAPWWDVDVSRIPDAVPMPHNGSVKANPYTVLGKTYYPMNDARAYRMVGTASWYGTKFHGQATANGETYDLYGMTAAHKTLPLPSYVRVTNLDNGKSVIVRVNDRGPFYSDRVIDLSFAAAKKLGYAETGTARVKVEGIDPVQWWAQRGRPAPMVLAQPKQAVAQAAPAAAQTQAVAMAQPIETYTPPPAQHAAAVLPVQIDSKKNASLPADGLYLQVGAFANPDAAELLKAKLSGVTAAPVFISSVVRNQQILHRVRLGPIGSADEVSRTQDSIRVANLGQPTLVRPD
modifications: amine reactive RED-NHS dye
notes: source: E. coli BL21-star (DE3), purified (Ni-NTA), labelled with RED-NHS dye
Turning to B1, the Kd (as a rule, the constant that tells how readily two partners part at equilibrium) with MltA turned out to be 67 nM; in the assay with PBP1a [1] it was 92 nM; with MltB [2], 96 nM; with MltF [3], 101 nM; in the assay with SltB2 [4], 110 nM; in the assay with MltD [5], 240 nM. Moreover, the dissociation constant Kd with PBP4 [6] was determined as 550 nM; in the assay with TypA [7], 1000 nM; with MltF2 [8], 12 nM.

B2: RlpA-Δ32 (domain or fragment)
chain: B1 chain
notes: source: E. coli BL21-star (DE3), purified (Ni-NTA)
For B2, the Kd in the assay with PBP1a [9] amounted to 340 nM; with MltB [10] it was 620 nM; with SltB2 [12] it was 1040 nM; with MltD [13] it was 430 nM; with PBP4 [14] it was 130 nM; with TypA [15] it was 2020 nM. The molecule also had a Kd with MltF2 [16] of 6 nM. The off-rate constant (koff) (as a rule, the first-order rate constant of dissociation) with PBP1a [9] stood at 0.00144 s⁻¹; with MltB [10], 0.00079 s⁻¹; with SltB2 [12], 0.0005 s⁻¹; with MltD [13] it was 0.00116 s⁻¹; in the assay with PBP4 [14] it was 0.00086 s⁻¹; with TypA [15] it was 0.00077 s⁻¹. This molecule also registered a dissociation rate constant (koff) with MltF2 [16] of 0.00028 s⁻¹. Moreover, the on-rate constant (kon) (as a rule, the rate constant with which the complex forms) in the assay with PBP1a [9] was found to be 4200 M⁻¹ s⁻¹; in the assay with MltB [10], 1270 M⁻¹ s⁻¹; with MltF [11], 500 M⁻¹ s⁻¹; with SltB2 [12], 480 M⁻¹ s⁻¹; in the assay with MltD [13], 2700 M⁻¹ s⁻¹; with PBP4 [14], 6700 M⁻¹ s⁻¹. The on-rate constant (kon) with TypA [15] was determined as 380 M⁻¹ s⁻¹; with MltF2 [16], 44000 M⁻¹ s⁻¹.

The record behind these values is paper PMC9712689 (Communications Biology, 2022).
